Source: US20070092942

Assays:
[1] = biological target: His-tagged Lys^48-linked polyubiquitin, P0CG47
[2] = biological target: His-tagged Lys^63-linked polyubiquitin, P0CG47
[3] = biological target: Ub C-terminal 7-amido-4-methylcoumarin, P0CG47
[4] = biological target: isopeptide-linked ISG15-peptide conjugate, P05161
[5] = biological target: isopeptide-linked Nedd8-peptide conjugate, Q15843
[6] = biological target: isopeptide-linked SUMO-1-peptide conjugate, P63165
[7] = biological target: isopeptide-linked Ub-peptide conjugate, P0CG47
Chain of isopeptide-linked Ub-peptide conjugate, P0CG47 (P0CG47 whole entry, looked up, tested part not stated): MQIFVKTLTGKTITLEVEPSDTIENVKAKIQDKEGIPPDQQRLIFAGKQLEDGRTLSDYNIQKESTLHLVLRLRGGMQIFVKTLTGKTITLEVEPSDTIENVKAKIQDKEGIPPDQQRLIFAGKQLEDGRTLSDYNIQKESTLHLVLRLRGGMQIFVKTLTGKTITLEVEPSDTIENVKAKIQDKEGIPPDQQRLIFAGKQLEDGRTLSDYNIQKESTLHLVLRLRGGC

Chain of Ub C-terminal 7-amido-4-methylcoumarin, P0CG47 (P0CG47 whole entry, looked up): as the sequence (P0CG47 whole entry, looked up, tested part not stated) above
Chain of His-tagged Lys^63-linked polyubiquitin, P0CG47 (P0CG47 whole entry, looked up): as the sequence (P0CG47 whole entry, looked up, tested part not stated) above
Chain of His-tagged Lys^48-linked polyubiquitin, P0CG47 (P0CG47 whole entry, looked up): as the sequence (P0CG47 whole entry, looked up, tested part not stated) above
Chain of isopeptide-linked SUMO-1-peptide conjugate, P63165 (P63165 1-97): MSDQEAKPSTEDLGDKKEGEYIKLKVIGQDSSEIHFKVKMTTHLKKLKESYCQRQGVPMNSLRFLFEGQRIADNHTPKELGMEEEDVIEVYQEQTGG
Chain of isopeptide-linked Nedd8-peptide conjugate, Q15843 (Q15843 whole entry, looked up, tested part not stated): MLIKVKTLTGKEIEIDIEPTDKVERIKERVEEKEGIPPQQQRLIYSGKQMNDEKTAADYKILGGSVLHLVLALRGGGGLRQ
Chain of isopeptide-linked ISG15-peptide conjugate, P05161 (P05161 1-157): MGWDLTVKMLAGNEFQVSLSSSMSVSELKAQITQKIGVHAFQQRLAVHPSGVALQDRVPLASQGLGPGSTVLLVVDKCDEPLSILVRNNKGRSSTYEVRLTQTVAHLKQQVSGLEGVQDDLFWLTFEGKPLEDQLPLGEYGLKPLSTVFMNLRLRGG

B1: His6UL36^USP (protein)
chain: MGGGNNTNPGGPVHKQAGSLASRAHMIAGTPPHSTMERGGDRDIVVTGARNQFAPDLEPGGSVSCMRSSLSFLSLIFDVGPRDVLSAEAIEGCLVEGGEWTRATAGPGPPRMCSIVELPNFLEYPGARGGLRCVFSRVYGEVGFFGEPAAGLLETQCPAHTFFAGPWALRPLSYTLLTIGPLGMGLFRDGDTAYLFDPHGLPEGTPAFIAKVRAGDMYPYLTYYTRDRPDVRWAGAMVFFVPSGPEPAAPADLTAAALHLYGASETYLQDEAFSERRVAITHPLRGEIAGLGEPCVGVGPREGVGGPGPHPPTAAQSPPPTRARRDDRASETSRGTAGPSAKPEAKRPNRAPDDVWAVALKGTPPTDPPSADPPSADPPSAIPPPPPSAPKTPAAEAAEEDDDDMRVLEMGVVPVGRHRARYSAGLPKRRRPTWTPPSSVEDLTSGEKTKRSAPPAKTKKKSTPKGKTPVGAAVPASVPEPVLASAPPDPAGPPVAEAGEDDGPTVPASSQALEALKTRRSPEPPGADLAQLF
[1]
  polyubiquitin chain depolymerization, anti-His immunoblot: we observed deubiquitination of Lys^48-linked polyUb only
[2]
  polyubiquitin chain depolymerization, anti-His immunoblot: The failure of UL36^USP to cleave Lys^63-linked polyUb
[3]
  Ub-AMC cleavage, turnover number: ~6 min⁻¹
[4]
  isopeptidase assay, loss of biotin signal: Isopeptide-linked conjugates of Nedd8, ISG15 or SUMO-1 are not substrates for UL36^USP
[5]
  isopeptidase assay, loss of biotin signal: Isopeptide-linked conjugates of Nedd8, ISG15 or SUMO-1 are not substrates for UL36^USP
[6]
  isopeptidase assay, loss of biotin signal: Isopeptide-linked conjugates of Nedd8, ISG15 or SUMO-1 are not substrates for UL36^USP
[7]
  isopeptidase assay, loss of biotin signal: results in cleavage of the Ub-peptide conjugate only

B2: EBV205 (protein)
chain: MSNGDWGQSQRTRGTGPVRGIRTMDVNAPGGGSGGSALRILGTASCNQAHCKFGRFAGIQCVSNCVLYLVKSFLAGRPLTSRPELDEVLDEGARLDALMRQSGILKGHEMAQLTDVPSSVVLRGGGRVHIYRSAEIFGLVLFPAQIANSAVVQSLAEVLHGSYNGVAQFILYICDIYAGAIIIETDGSFYLFDPHCQKDAAPGTP
[3]
  UbAMC hydrolysis: efficiently hydrolyzed UbAMC

B3: EBV205 C61A (protein)
chain: MSNGDWGQSQRTRGTGPVRGIRTMDVNAPGGGSGGSALRILGTASCNQAHCKFGRFAGIQAVSNCVLYLVKSFLAGRPLTSRPELDEVLDEGARLDALMRQSGILKGHEMAQLTDVPSSVVLRGGGRVHIYRSAEIFGLVLFPAQIANSAVVQSLAEVLHGSYNGVAQFILYICDIYAGAIIIETDGSFYLFDPHCQKDAAPGTP
[3]
  UbAMC hydrolysis: absent in the case of active site mutants
